Reference: publication PMC5686206

Substrate: T1, OCP lacking the NTE comprising the first 20 amino acids (ΔNTE), 6xHis-tagged (Synechocystis sp. PCC 6803) (UniProt P74102)
T1 sequence: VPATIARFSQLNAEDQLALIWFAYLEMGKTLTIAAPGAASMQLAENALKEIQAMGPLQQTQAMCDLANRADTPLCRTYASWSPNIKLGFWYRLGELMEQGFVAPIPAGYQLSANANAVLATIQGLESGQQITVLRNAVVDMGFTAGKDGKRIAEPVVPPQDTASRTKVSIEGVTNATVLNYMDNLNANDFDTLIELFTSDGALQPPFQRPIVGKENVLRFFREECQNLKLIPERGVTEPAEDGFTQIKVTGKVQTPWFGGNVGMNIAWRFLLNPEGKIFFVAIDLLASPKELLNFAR

amplitude a3 (yield) of the slow component (C3) of flash-induced absorption transients at 550 nm, ΔNTE OCP + FRP (FRP to ΔNTE OCP ratio 1.6), 36 °C: 76% | time constant t1 of the fast component (C1) of flash-induced absorption transients at 550 nm, ΔNTE OCP + FRP (FRP to ΔNTE OCP ratio 1.6), 36 °C: 70.4 µs
B1: Fluorescence Recovery Protein (FRP), 6xHis-tagged (natural protein)
chain: MLQTAEAPWSQAETQSAHALFRKAYQRELDGLLATVQAQASQITQIDDLWKLHDFLSAKRHEIDGKYDDRQSVIIFVFAQLLKEGLVQAEELTFLAADKQSKIKALARL
